Experimental data: patent US20050123936A1, “Method, composition, and kit to design, evaluate, and/or test compounds that modulate regulatory factor binding to nucleic acids” (priority 2003, published 2005)
“Also recorded” adds a separate entry of the source. Blank lines part the entries; values can stand above or below the molecule they belong to. Ends that are not written are not given here.

Legend:
[1] = biological target: T1, Exd (Drosophila melanogaster, UniProt P40427); test: Example 7 EMSA: recruitment of Exd by linker compounds; assay type: binding; details: for ability to recruit Exd: 4° C.; for positioning of the test compound with respect to its hydrophobic docking site on the surface of Exd: short linkers (<4 Å when fully extended)
T1 construct: comprising the homeodomain and the extended fourth helix (residues 238-324); made in house
T1 sequence (P40427 238-324): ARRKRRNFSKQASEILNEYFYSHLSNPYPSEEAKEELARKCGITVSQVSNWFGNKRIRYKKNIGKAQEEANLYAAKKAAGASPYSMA
Description: The assays were performed with 50 nM of the conjugate pre-incubated with target DNA (thus to bind the anchor moiety to the target nucleic acid) followed by the addition and incubation with Exd.
To determine the effects of longer linker on binding, the ability of compounds using linkers 1, 2 and 4 to recruit Exd at three different temperatures was investigated.

[2] = biological target: T2, Extradenticle (Exd), homeodomain plus extended fourth helix (Drosophila) (UniProt P40427); test: EMSA; details: apparent, with polyamide-FYPWM conjugate
T2 sequence: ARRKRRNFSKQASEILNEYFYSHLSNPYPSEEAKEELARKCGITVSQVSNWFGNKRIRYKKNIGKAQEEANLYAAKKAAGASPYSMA

[3] = tested on: AGCTCA mismatch site on 250-bp EcoRI/PvuII restriction fragment from plasmid pDEH9; test: Quantitative DNase I footprint titration, mismatch site AGCTCA; assay type: binding
Description: (§1) Quantitative DNaseI footprinting can be used to determine the equilibrium association constants for binding to match and mismatch sites. Footprinting experiments are generally performed on 3′- and/or 5′-^32P end restriction fragments derived from plasmids. 3′-shifted cleavage patterns are consistent with location of the polyamide in the minor groove. Typical reaction conditions are: 10 mM Tris-HCl, 10 mM KCl, 10 mM MgCl2, 5 mM CaCl2, pH 7.0, and 22° C. See Brenowitz et al. (1986). Methods Enzymol. 130:132-181; Fox & Waring (1984) Nucleic Acids Res. 12:9271-9285; and Brenowitz et al. (1986) Proc. Natl. Acad. Sci. U.S.A. 83: 8462-8466.
(§2) DNase I Footprinting: Dissociation constants for the DNA binding of compounds 1, 2 and 3 were obtained following published protocols. All reactions were carried out in 400 μL total volume employing 20 kcpm of a 3′-radiolabelled 250-bp restriction fragment from the plasmid pDEH9 (FIG. 1a) (SEQ. ID. NO: 4). No carrier DNA was used in the equilibration, and the solutions were allowed to equilibrate for 12 h at 22° C. in TKMC buffer (10 mM TRIS, 10 mM KCl, […], 5 mM CaCl2 pH 7.0) prior to the DNase I digestion. Reaction products (8 kcpm) were resolved on denaturing 8% polyacrylamide sequencing gels run at 55 W.
(§3) FIGS. 1b, 1c, and 1d are quantitative DNAse I footprint titration experiments for compounds 1, 2 and 3 on the 3′^−32 P-labeled 250-bp EcoRI/PvuII restriction fragment from the plasmid pDEH9. Lane 1: Intact DNA. Lane 2: A-reaction. Lane 3: G-reaction. Lane 4: DNAse 1 standard.
(§4) The DNA-binding properties of the compounds 1-3 were investigated by quantitative DNase 1 footprinting assays. The equilibrium binding constants of each of the compounds for a matched versus three single base pair mismatch sites is compiled in Table 1. The lower strand sequence is shown in the header. Mismatched base pairs are underlined. The residue under the YPWM peptide is in bold. Relative specificities are given in square brackets.

[4] = biological target: T3, extradenticle (Exd) protein (residues 238-324) (Drosophila melanogaster, UniProt P40427); test: EMSA: recruitment of Exd to its cognate DNA site by polyamides 1-3; assay type: binding; details: saturating 50 nM compound; Exd 0-100 nM; listed as compound 3
T3 construct: comprising the homeodomain and the extended fourth helix (residues 238-324); made in house
T3 sequence (P40427 238-324): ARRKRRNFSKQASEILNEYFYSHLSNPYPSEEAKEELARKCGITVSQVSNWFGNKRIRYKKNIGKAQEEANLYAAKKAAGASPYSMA
Excerpt: Protein expression: Drosophila extradenticle (Exd) protein comprising the homeodomain and the extended fourth helix (residues 238-324), as well as ultrabithorax (Ubx) protein homeodomain (residues 233-313 of the Ubx isoform IVa) were expressed and purified after Passner & Aggarwal. The purified proteins Exd and Ubx were used for EMSA studies as described below.
For the templates, the DNA oligonucleotides depicted in FIGS. 2a, 2b, 2c, and 2d were used, SEQ. ID NOS: 5, 6, 7, and 8, respectively. The DNA upper strand was annealed with the respective matching lower strand and both strands were 5′-labeled with γ-^32P-ATP and polynucleotide kinase, using standard procedures.
Gel-shift experiments: The master mix contained 50% BSA/50% glycerol, reaction buffer (150 mM potassium glutamate, 50 mM HEPES pH 7.0, 1 mM DTT, and 5′-end labeled DNA (^32P) The final concentrations in the samples were 100 ng/μL BSA and 10% glycerol. Polyamides were kept in subdued lighting whenever possible. Upon addition of the polyamide to 1 pM DNA, the samples were incubated at 25 °C. for 30 minutes in a 20 μL reaction. Next, Exd was added to the samples and incubated for 1 hour at 4° C. A 9% acrylamide/3% glycerol gel was pre-run for 15 min prior to loading. In each lane 15 μL of a 20 μL reaction were loaded while the gel was running to prevent the samples from being diluted. The gels were run at 4° C./185 V. Gels were dried, exposed to a phosphorimager screen, and visualized using a Molecular Dynamics phosphorimager.
FIGS. 3a and 3b: EMSA studies with polyamides 1-3, Exd and Ubx. In FIG. 3a, each polyamide binds and decreases the mobility of free DNA (lanes 2-18). […] In lanes 2-6,8-12, 14-18, Exd was added in following concentrations: 0, 3, 10, 30, 100 nM. Lanes 19 and 20 contained DNA bearing the Exd-Ubx binding site that was used in X-ray crystal structure determination (see methods above for sequence). In the reaction shown in lane 20, 275 nM Ubx and 30 nM Exd were incubated with DNA. […]

[5] = tested on: TGGCCA mismatch site on 250-bp EcoRI/PvuII restriction fragment from plasmid pDEH9; test: Quantitative DNase I footprint titration, mismatch site TGGCCA; assay type: binding
Description: as §1, §2, §3, §4

[6] = biological target: TGGTCA matched site on 250-bp EcoRI/PvuII restriction fragment from plasmid pDEH9; test: Quantitative DNase I footprint titration, matched site; assay type: binding; details: 12 h at 22° C., TKMC buffer pH 7.0, read-out: Equilibrium Dissociation Constants Kd, TGGTCA
Description: as §1
DNase I Footprinting: Dissociation constants for the DNA binding of compounds 1, 2 and 3 were obtained following published protocols. All reactions were carried out in 400 μL total volume employing 20 kcpm of a 3′-radiolabelled 250-bp restriction fragment from the plasmid pDEH9 (FIG. 1a) (SEQ. ID. NO: 4). […]
FIGS. 1b, 1c, and 1d are quantitative DNAse I footprint titration experiments for compounds 1, 2 and 3 on the 3′^−32 P-labeled 250-bp EcoRI/PvuII restriction fragment from the plasmid pDEH9. […]
The DNA-binding properties of the compounds 1-3 were investigated by quantitative DNase 1 footprinting assays. […]

[7] = tested on: TGGGCA mismatch site on 250-bp EcoRI/PvuII restriction fragment from plasmid pDEH9; test: Quantitative DNase I footprint titration, mismatch site TGGGCA; assay type: binding
Description: as §1, §2, §3, §4

[8] = biological target: T4, Drosophila extradenticle (Exd) protein comprising the homeodomain and the extended fourth helix (residues … (Drosophila, UniProt P40427 238-324)); test: EMSA, conjugate pre-incubated with target DNA, then Exd
T4 sequence (looked up): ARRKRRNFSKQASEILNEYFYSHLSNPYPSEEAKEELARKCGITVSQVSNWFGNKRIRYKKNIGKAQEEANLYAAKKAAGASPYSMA

[9] = biological target: T4, Drosophila extradenticle (Exd) protein …; test: EMSA (gel shift), 32P-labelled duplex DNA pre-bound with 50 nM compound 3, Exd titrated, 4 °C
Description: (§5) Upon addition of the polyamide to 1 pM DNA, the samples were incubated at 25 °C. for 30 minutes in a 20 μL reaction. […] A 9% acrylamide/3% glycerol gel was pre-run for 15 min prior to loading. In each lane 15 μL of a 20 μL reaction were loaded while the gel was running to prevent the samples from being diluted. The gels were run at 4° C./185 V. Gels were dried, exposed to a phosphorimager screen, and visualized using a Molecular Dynamics phosphorimager.
(§6) A 47-base-pair duplex DNA with one cognate site was incubated with saturating concentrations (50 nM) of each compound.

[10] = biological target: T4, Drosophila extradenticle (Exd) protein …; test: EMSA, compared with Exd on the Ubx-DNA complex
Description: as §5, §6

[11] = biological target: T4, Drosophila extradenticle (Exd) protein …; test: EMSA, recruitment of Exd to its cognate DNA site by DNA-bound compound 2 compared with Ubx
Description: as §5, §6

[12] = biological target: T4, Drosophila extradenticle (Exd) protein …; test: EMSA, Exd titrated on the DNA/compound 2 binary complex (ternary complex), 4 °C; Exd (residues 238-324) on the DNA/compound 2 complex, EMSA
Description: (§7) The gels were run at 4° C./185 V. Gels were dried, exposed to a phosphorimager screen, and visualized using a Molecular Dynamics phosphorimager.
as §6

[13] = biological target: T4, Drosophila extradenticle (Exd) protein …; test: EMSA, Exd on DNA with and without compound 2
Description: as §7, §6

[14] = relative to matched site TGGTCA

Molecule: 50 bp duplex with single optimal polyamide site and adjacent Exd site (Example 7)
- Kd ([2]; linker 1 (PEG), 4 C, much reduced at higher temperature): 0.6 nM
- Kd ([2]; linker 4, 4 C, less than 5-fold decrease at 37 C): 0.08 nM

Molecule: Linker 7: Example 7 polyamide-FYPWM conjugate with linker 7, no lysine residue (also: conjugated to polyamide via linker 7)
- positioning of the test compound with respect to its hydrophobic docking site on the surface of Exd [1]: do not optimally position the test compound

Molecule: Linker 2: Example 7 polyamide-FYPWM conjugate with linker 2, 10-atom linker, ~11 Å (FYPWMK; also: conjugated to polyamide via linker 2)
- ability to recruit Exd [1]: recruit Exd effectively

Molecule: Linker 8: Example 7 polyamide-FYPWM conjugate with linker 8, lysine linker, ~2.5 Å (FYPWMK; also: conjugated to polyamide via linker 8)
- positioning of the test compound with respect to its hydrophobic docking site on the surface of Exd [1]: do not optimally position the test compound

B1: Compound 3: hairpin polyamide 1 conjugated to Ac-Phe-Tyr-Pro-Ala-Ala-Lys-Gly- (peptide)
peptide: Ac-FYPAAKG
modifications: not fully specified (C-terminus); printed as Ac-Phe-Tyr-Pro-Ala-Ala-Lys-Gly-; also: C-terminal Gly amide-bonded to propylamine side chain of polyamide 1
notes: Non-functional (Trp-Met to Ala-Ala) control conjugate; also called conjugate 3; polyamide 3
- binding result [9]: no binding (tested: 100 nM)

Further lines, with some results ahead:

- ability to recruit Exd [1]: recruit Exd effectively
- binding affinity (Exd recruitment) ([1]; higher temperatures (23° C., 37° C.)): dramatically reduced binding affinity
Molecule: Linker 1: Example 7 polyamide-FYPWM conjugate with linker 1, defined 28-atom polyethylene glycol linker, ~33 Å (FYPWMK; also: conjugated to polyamide via linker 1)

- ability to recruit Exd in comparison to the compound using linker 5 ([1]; absence of the lysine residue): did not appreciably alter
Molecule: Linker 6: Example 7 polyamide-FYPWM conjugate with linker 6, no lysine residue (not fully specified (C-terminus); also: joined via linker 7 (no lysine) to hairpin polyamide)

- ability to recruit Exd [1]: recruit Exd effectively
Molecule: Linker 4: Example 7 polyamide-FYPWM conjugate with linker 4, 7-atom linker, ~7 Å (FYPWMK; also: conjugated to polyamide via linker 4)

- Relative specificity (square brackets), AGCTCA [3, 14]: 16
- Kd ([3]; single base pair mismatch site, 22° C., TKMC buffer, read-out: Equilibrium Dissociation Constants Kd, AGCTCA): 14 ± 5 nM
- Relative specificity (square brackets), TGGCCA [5, 14]: 14
- Kd ([5]; single base pair mismatch site, 22° C., TKMC buffer, read-out: Equilibrium Dissociation Constants Kd, TGGCCA): 12 ± 5 nM
- Kd [6]: 0.86 ± 0.32 nM
- Relative specificity (square brackets), TGGGCA [7, 14]: 116
- Kd ([7]; single base pair mismatch site, 22° C., TKMC buffer, read-out: Equilibrium Dissociation Constants Kd, TGGGCA): ≥ 0.1 nM
Molecule: Cmpd 3 (FYPAAKG)
- ability to stabilize Exd binding to the adjacent cognate DNA site (TGAT) ([1]; 50 nM conjugate pre-incubated with target DNA, data not shown): Neither the parent polyamide lacking the YPWM hook, nor the polyamide bearing an altered hook (FYPAAK) (SEQ. ID. NO: 14) was able to stabilize Exd binding
- ability to recruit Exd to its cognate DNA site (Exd binding) [4]: No binding was observed; also recorded: Neither compound 3 nor 1 showed any ability to recruit Exd

- binding result [8]: no binding (tested: 50 nM conjugate)
Molecule: FYPAAK (also: conjugated to hairpin polyamide, linker not given here) [polyamide bearing an altered hook (FYPAAK)]

- fold of Kd of Exd against that for the DNA-Ubx complex [10]: 2 fold
- fold lower concentration required to recruit Exd, against its natural Hox partner (Ubx) [11]: 20 fold
- Kd [12]: 4.4 nM
- fold improvement of the affinity of Exd for its cognate site against DNA alone [13]: ≥ 200 fold
B2: Compound 2: hairpin polyamide 1 conjugated to Ac-Phe-Tyr-Pro-Trp-Met-Lys-Gly- (peptide)
peptide: Ac-FYPWMKG
modifications: not fully specified (C-terminus); printed as Ac-Phe-Tyr-Pro-Trp-Met-Lys-Gly-; also: C-terminal Gly amide-bonded to propylamine side chain of polyamide 1
notes: Peptide-polyamide conjugate; The peptide carries the Hox YPWM motif; also called conjugate 2; polyamide 2
